According to the supplement of paper PMC5998384:

Legend:
HeLa Kyoto [1] = assay: thermal stability score vs G1/S (z-score of summed log2 fold changes over temperatures); higher = more thermally stable than in G1/S
HeLa Kyoto [2] = assay: solubility change mitosis vs G1/S (difference of NP-40 vs SDS log2 ratios) (log2 ratio difference); higher = more soluble in mitosis
HeLa Kyoto [3] = assay: melting temperature (median over replicates), in situ; higher = more thermally stable
HeLa Kyoto [4] = assay: solubility in G1/S (NP-40 vs SDS abundance) (log2 ratio); higher = more soluble; conditions: cell cycle stage: G1/S
[5] = cell cycle stage: early G1 (4.5 h after nocodazole release)
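For melting temperature (median over replicates), in situ in this document: HeLa Kyoto cells synchronized by double thymidine or nocodazole block, proteins quantified by TMT10plex mass spectrometry, three independent biological replicates.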
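For solubility change mitosis vs G1/S (difference of NP-40 vs SDS log2 ratios) in this document: synchronized HeLa Kyoto cells (double thymidine block for G1/S, nocodazole release for mitosis), protein amounts in NP-40 versus SDS lysates quantified by mass spectrometry, three biological replicates.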
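For solubility in G1/S (NP-40 vs SDS abundance) in this document: HeLa Kyoto cells arrested at G1/S by double thymidine block, proteins quantified by TMT10plex mass spectrometry in mild NP-40 versus SDS extracts, three biological replicates.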
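For thermal stability score vs G1/S (z-score of summed log2 fold changes over temperatures) in this document: synchronized HeLa Kyoto cells, proteins quantified by TMT10plex mass spectrometry, three biological replicates, mitosis taken 0.5 h after nocodazole release, G1/S directly after double thymidine block.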

With “MDIRPNHTIYINNMNDKIKKEELKRSLYALFSQFGHVVDIVALKTMKMRGQAFVIFKELGSSTNALRQLQGFPFYGKPMRIQYAKTDSDIISKMRGTFADKEKKKEKKKAKTVEQTATTTNKKPGQGTPNSANTQGNSTPNPQVPDYPPNYILFLNNLPEETNEMMLSMLFNQFPGFKEVRLVPGRHDIAFVEFENDGQAGAARDALQGFKITPSHAMKITYAKK [SNRPB2]” the thermal stability score (HeLa Kyoto [1]; [5]) was -2.85, the thermal stability score (HeLa Kyoto [1]; cell cycle stage: mitosis) was -4.3 and the “solubility change mitosis (log2)” value (HeLa Kyoto [2]) was 0.472. For the same sequence, the melting temperature (HeLa Kyoto [3]; cell cycle stage: G1/S) was 54.2 °C, the melting temperature (HeLa Kyoto [3]; cell cycle stage: mitosis) was 53.2 °C and the “solubility in G1/S (log2)” value (HeLa Kyoto [4]) was 0.221.
For “MDIYDTQTLGVVVFGGFMVVSAIGIFLVSTFSMKETSYEEALANQRKEMAKTHHQKVEKKKKEKTVEKKGKTKKKEEKPNGKIPDHDPAPNVTVLLREPVRAPAVAVAPTPVQPPIIVAPVATVPAMPQEKLASSPKDKKKKEKKVAKVEPAVSSVVNSIQVLTSKAAILETAPKEVPMVVVPPVGAKGNTPATGTTQGKKAEGTQNQSKKAEGAPNQGRKAEGTPNQGKKTEGTPNQGKKAEGTPNQGKKAEGTPNQGKKAEGAQNQGKKVDTTPNQGKKVEGAPTQGRKAEGAQNQAKKVEGAQNQGKKAEGAQNQGKKGEGAQNQGKKAEGAQNQGKKAEGAQNQGKKAEGAQNQGKKAEGAQNQGKKAEGAQNQGKKAEGAQNQGKKVEGAQNQGKKAEGAQNQGKKAEGAQNQGKKAEGAQNQGKKAEGAQNQGKKAEGAQNQGKKAEGAQNQGKKAEGAQNQGKKVEGAQNQGKKAEGAQNQGKKAEGAQNQGKKAEGAQNQGQKGEGAQNQGKKTEGAQGKKAERSPNQGKKGEGAPIQGKKADSVANQGTKVEGITNQGKKAEGSPSEGKKAEGSPNQGKKADAAANQGKKTESASVQGRNTDVAQSPEAPKQEAPAKKKSGSKKKGEPGPPDADGPLYLPYKTLVSTVGSMVFNEGEAQRLIEILSEKAGIIQDTWHKATQKGDPVAILKRQLEEKEKLLATEQEDAAVAKSKLRELNKEMAAEKAKAAAGEAKVKKQLVAREQEITAVQARMQASYREHVKEVQQLQGKIRTLQEQLENGPNTQLARLQQENSILRDALNQATSQVESKQNAELAKLRQELSKVSKELVEKSEAVRQDEQQRKALEAKAAAFEKQVLQLQASHRESEEALQKRLDEVSRELCHTQSSHASLRADAEKAQEQQQQMAELHSKLQSSEAEVRSKCEELSGLHGQLQEARAENSQLTERIRSIEALLEAGQARDAQDVQASQAEADQQQTRLKELESQVSGLEKEAIELREAVEQQKVKNNDLREKNWKAMEALATAEQACKEKLLSLTQAKEESEKQLCLIEAQTMEALLALLPELSVLAQQNYTEWLQDLKEKGPTLLKHPPAPAEPSSDLASKLREAEETQSTLQAECDQYRSILAETEGMLRDLQKSVEEEEQVWRAKVGAAEEELQKSRVTVKHLEEIVEKLKGELESSDQVREHTSHLEAELEKHMAAASAECQNYAKEVAGLRQLLLESQSQLDAAKSEAQKQSDELALVRQQLSEMKSHVEDGDIAGAPASSPEAPPAEQDPVQLKTQLEWTEAILEDEQTQRQKLTAEFEEAQTSACRLQEELEKLRTAGPLESSETEEASQLKERLEKEKKLTSDLGRAATRLQELLKTTQEQLAREKDTVKKLQEQLEKAEDGSSSKEGTSV [RRBP1]”, the thermal stability score (HeLa Kyoto [1]; [5]) was 2.64, the thermal stability score (HeLa Kyoto [1]; cell cycle stage: mitosis) was 7.14 and the “solubility change mitosis (log2)” value (HeLa Kyoto [2]) was 0.448. The melting temperature (HeLa Kyoto [3]; cell cycle stage: G1/S) was 53.2 °C, the melting temperature (HeLa Kyoto [3]; cell cycle stage: mitosis) was 53.7 °C and the “solubility in G1/S (log2)” value (HeLa Kyoto [4]) was 0.0657.
“MDLLFGRRKTPEELLRQNQRALNRAMRELDRERQKLETQEKKIIADIKKMAKQGQMDAVRIMAKDLVRTRRYVRKFVLMRANIQAVSLKIQTLKSNNSMAQAMKGVTKAMGTMNRQLKLPQIQKIMMEFERQAEIMDMKEEMMNDAIDDAMGDEEDEEESDAVVSQVLDELGLSLTDELSNLPSTGGSLSVAAGGKKAEAAASALADADADLEERLKNLRRD [CHMP2A]” was tested, and the thermal stability score (HeLa Kyoto [1]; [5]) was 0.326, the thermal stability score (HeLa Kyoto [1]; cell cycle stage: mitosis) was 0.533 and the “solubility change mitosis (log2)” value (HeLa Kyoto [2]) was 0.0293. For the same sequence, the melting temperature (HeLa Kyoto [3]; cell cycle stage: G1/S) was 53 °C, the melting temperature (HeLa Kyoto [3]; cell cycle stage: mitosis) was 54.4 °C and the “solubility in G1/S (log2)” value (HeLa Kyoto [4]) was 0.537.
In the case of “MDLNSASTVVLQVLTQATSQDTAVLKPAEEQLKQWETQPGFYSVLLNIFTNHTLDINVRWLAVLYFKHGIDRYWRRVAPHALSEEEKTTLRAGLITNFNEPINQIATQIAVLIAKVARLDCPRQWPELIPTLIESVKVQDDLRQHRALLTFYHVTKTLASKRLAADRKLFYDLASGIYNFACSLWNHHTDTFLQEVSSGNEAAILSSLERTLLSLKVLRKLTVNGFVEPHKNMEVMGFLHGIFERLKQFLECSRSIGTDNVCRDRLEKTIILFTKVLLDFLDQHPFSFTPLIQRSLEFSVSYVFTEVGEGVTFERFIVQCMNLIKMIVKNYAYKPSKNFEDSSPETLEAHKIKMAFFTYPTLTEICRRLVSHYFLLTEEELTMWEEDPEGFTVEETGGDSWKYSLRPCTEVLFIDIFHEYNQTLTPVLLEMMQTLQGPTNVEDMNALLIKDAVYNAVGLAAYELFDSVDFDQWFKNQLLPELQVIHNRYKPLRRRVIWLIGQWISVKFKSDLRPMLYEAICNLLQDQDLVVRIETATTLKLTVDDFEFRTDQFLPYLETMFTLLFQLLQQVTECDTKMHVLHVLSCVIERVNMQIRPYVGCLVQYLPLLWKQSEEHNMLRCAILTTLIHLVQGLGADSKNLYPFLLPVIQLSTDVSQPPHVYLLEDGLELWLVTLENSPCITPELLRIFQNMSPLLELSSENLRTCFKIINGYIFLSSTEFLQTYAVGLCQSFCELLKEITTEGQVQVLKVVENALKVNPILGPQMFQPILPYVFKGIIEGERYPVVMSTYLGVMGRVLLQNTSFFSSLLNEMAHKFNQEMDQLLGNMIEMWVDRMDNITQPERRKLSALALLSLLPSDNSVIQDKFCGIINISVEGLHDVMTEDPETGTYKDCMLMSHLEEPKVTEDEEPPTEQDKRKKMLALKDPVHTVSLQQFIYEKLKAQQEMLGEQGFQSLMETVDTEIVTQLQEFLQGF [IPO11]”, the thermal stability score (HeLa Kyoto [1]; [5]) is reported as 1.33, the thermal stability score (HeLa Kyoto [1]; cell cycle stage: mitosis) is reported as 0.273 and the “solubility change mitosis (log2)” value (HeLa Kyoto [2]) is reported as -0.25. The melting temperature (HeLa Kyoto [3]; cell cycle stage: G1/S) was 51.5 °C, the melting temperature (HeLa Kyoto [3]; cell cycle stage: mitosis) was 50.8 °C and the “solubility in G1/S (log2)” value (HeLa Kyoto [4]) was -0.209.
For “MDLRQFLMCLSLCTAFALSKPTEKKDRVHHEPQLSDKVHNDAQSFDYDHDAFLGAEEAKTFDQLTPEESKERLGKIVSKIDGDKDGFVTVDELKDWIKFAQKRWIYEDVERQWKGHDLNEDGLVSWEEYKNATYGYVLDDPDPDDGFNYKQMMVRDERRFKMADKDGDLIATKEEFTAFLHPEEYDYMKDIVVQETMEDIDKNADGFIDLEEYIGDMYSHDGNTDEPEWVKTEREQFVEFRDKNRDGKMDKEETKDWILPSDYDHAEAEARHLVYESDQNKDGKLTKEEIVDKYDLFVGSQATDFGEALVRHDEF [CALU]”, the thermal stability score (HeLa Kyoto [1]; [5]) was 1.04, the thermal stability score (HeLa Kyoto [1]; cell cycle stage: mitosis) was -0.549 and the “solubility change mitosis (log2)” value (HeLa Kyoto [2]) was 0.167. The melting temperature (HeLa Kyoto [3]; cell cycle stage: G1/S) was 57.8 °C, the melting temperature (HeLa Kyoto [3]; cell cycle stage: mitosis) was 60.3 °C and the “solubility in G1/S (log2)” value (HeLa Kyoto [4]) was 0.281.
